# Numbering of substitutions follows the chain as printed. In names and notes the source's numbering stands.
# T1: FcγRIIb extracellular domain with C-terminal His tag (human, UniProt P31994 43-217)
# T1 construct: extracellular domain; also called FcgRIIb; FcγRIIb extracellular region; not shown: His tag at the C terminus
# T1 sequence (looked up): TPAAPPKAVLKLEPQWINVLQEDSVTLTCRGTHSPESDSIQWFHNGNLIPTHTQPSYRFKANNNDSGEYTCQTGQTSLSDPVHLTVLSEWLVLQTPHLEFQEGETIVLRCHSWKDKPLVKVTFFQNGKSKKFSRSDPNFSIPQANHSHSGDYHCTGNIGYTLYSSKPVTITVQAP
# T2: FcγRIIa type H extracellular domain with C-terminal His tag (human, UniProt P12318 34-217)
# T2 construct: extracellular domain; also called FcγRIIa H; FcγRIIaH; not shown: His tag at the C terminus
# T2 sequence (looked up): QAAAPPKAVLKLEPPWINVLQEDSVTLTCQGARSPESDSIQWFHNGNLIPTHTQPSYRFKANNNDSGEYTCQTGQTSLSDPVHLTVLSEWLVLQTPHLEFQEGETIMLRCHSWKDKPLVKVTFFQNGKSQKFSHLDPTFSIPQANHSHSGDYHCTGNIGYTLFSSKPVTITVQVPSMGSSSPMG
# T3: FcγRIIa type R extracellular domain with C-terminal His tag (human, UniProt P12318 34-217)
# T3 chain: T2 sequence (looked up) with H134R
# T4: FcγRIIa type R extracellular domain, C-terminal His tag (human, UniProt P12318 34-217)
# T4 construct: extracellular domain; also called FcgRIIaR; FcγRIIaR; not shown: His tag at the C terminus
# T4 sequence (looked up): T2 sequence (looked up) with H134R
# B1: B3 variant of GpH7-B3/GpL16-k0 with mutation A (Pro at position 238 (EU numbering) substituted with Asp) (antibody, human IgG1, kappa)
# heavy: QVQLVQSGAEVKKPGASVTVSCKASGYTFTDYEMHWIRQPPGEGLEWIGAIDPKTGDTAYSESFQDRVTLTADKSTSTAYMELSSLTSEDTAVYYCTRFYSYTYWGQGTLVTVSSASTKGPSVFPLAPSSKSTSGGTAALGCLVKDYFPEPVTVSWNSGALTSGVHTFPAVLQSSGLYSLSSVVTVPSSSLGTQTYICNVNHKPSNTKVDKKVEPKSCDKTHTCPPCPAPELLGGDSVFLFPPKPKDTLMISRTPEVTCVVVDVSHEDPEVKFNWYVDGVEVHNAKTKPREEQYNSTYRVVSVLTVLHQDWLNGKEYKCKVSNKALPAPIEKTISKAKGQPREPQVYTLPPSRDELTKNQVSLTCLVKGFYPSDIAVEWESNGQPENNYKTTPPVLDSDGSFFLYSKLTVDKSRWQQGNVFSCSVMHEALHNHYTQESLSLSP
# light: DIVMTQSPLSLPVTPGEPASISCQASESLVHSNRNTYLHWYLQKPGQSPQLLIYKVSNRFSGVPDRFSGSGSGTDFTLKISRVEAEDVGVYYCSQNTHVPPTFGQGTKVEIERTVAAPSVFIFPPSDEQLKSGTASVVCLLNNFYPREAKVQWKVDNALQSGNSQESVTEQDSKDSTYSLSSTLTLSKADYEKHKVYACEVTHQGLSSPVTKSFNRGEC
# notes: copies: 2 + 2
# B2: B3 variant of GpH7-B3/GpL16-k0 with mutation B (Leu at position 328 (EU numbering) substituted with Glu) (antibody, human IgG1, kappa)
# heavy: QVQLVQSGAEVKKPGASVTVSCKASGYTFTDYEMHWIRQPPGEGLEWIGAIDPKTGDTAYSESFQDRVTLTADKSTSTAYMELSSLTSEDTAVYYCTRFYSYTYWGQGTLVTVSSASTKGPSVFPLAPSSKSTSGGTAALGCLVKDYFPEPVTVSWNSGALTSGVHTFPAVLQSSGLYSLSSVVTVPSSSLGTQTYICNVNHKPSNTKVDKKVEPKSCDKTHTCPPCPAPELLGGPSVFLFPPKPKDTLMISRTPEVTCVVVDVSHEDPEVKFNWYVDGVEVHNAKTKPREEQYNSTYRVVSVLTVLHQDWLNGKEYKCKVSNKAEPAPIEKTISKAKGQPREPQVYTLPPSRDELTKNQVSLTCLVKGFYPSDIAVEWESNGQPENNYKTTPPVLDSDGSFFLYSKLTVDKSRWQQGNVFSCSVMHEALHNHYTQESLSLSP
# light: B1 light
# notes: copies: 2 + 2
# B3: IL6R-F652/IL6R-L (antibody, human IgG1, kappa)
# heavy: QVQLQESGPGLVKPSETLSLTCAVSGHSISHDHAWSWVRQPPGEGLEWIGFISYSGITNYNPSLQGRVTISRDNSKNTLYLQMNSLRAEDTAVYYCARSLARTTAMDYWGEGTLVTVSSASTKGPSVFPLAPSSKSTSGGTAALGCLVKDYFPEPVTVSWNSGALTSGVHTFPAVLQSSGLYSLSSVVTVPSSSLGTQTYICNVNHKPSNTKVDKKVEPKSCDKTHTCPPCPAPELLGGDSVFLFPPKPKDTLYISRTPEVTCVVVDVSHEDPEVKFNWYVDGVEVHNAKTKPREEQYNSTYRVVSVLTVLHQDWLNGKEYKCKVSNKALPAPIEKTISKAKGQPREPQVYTLPPSRDELTKNQVSLTCLVKGFYPSDIAVEWESNGQPENNYKTTPPVLDSDGSFFLYSKLTVDKSRWQQGNVFSCSVMHEALHYHYTQKSLSLSP
# light: not shown
# notes: IL6R-F11 with P238D; copies: 2 + 2
# B4: IL6R-BP106/IL6R-L (antibody, human IgG1, kappa)
# heavy: B3 heavy with Y254M, H270D, Y436N, K441E
# light: not shown
# notes: IgG1; P238D/H268D (EU numbering) introduced into IL6R-B3
# B5: IL6R-2B172/IL6R-L (antibody, human IgG1, kappa)
# heavy: B3 heavy with Y254M, V325M, Y436N, K441E
# light: not shown
# notes: IgG1; P238D/V323M (EU numbering) introduced into IL6R-B3
# B6: IL6R-PD080/IL6R-L (antibody, human IgG1, kappa)
# heavy: B3 heavy with G239D
# light: not shown
# notes: IL6R-F11 with P238D/G237D; copies: 2 + 2
# B7: IL6R-PD042/IL6R-L (antibody, human IgG1, kappa)
# heavy: B3 heavy with L236W
# light: not shown
# notes: IL6R-F11 with P238D/L234W; copies: 2 + 2
# B8: IL6R-PD087/IL6R-L (antibody, human IgG1, kappa)
# heavy: B3 heavy with G239M
# light: not shown
# notes: IL6R-F11 with P238D/G237M; copies: 2 + 2
# B9: IL6R-PD079/IL6R-L (antibody, human IgG1, kappa)
# heavy: B3 heavy with G239A
# light: not shown
# notes: IL6R-F11 with P238D/G237A; copies: 2 + 2
# B10: IL6R-BP119/IL6R-L (antibody, human IgG1, kappa)
# heavy: B3 heavy with Y254M, K328M, Y436N, K441E
# light: not shown
# notes: IgG1; P238D/K326M (EU numbering) introduced into IL6R-B3
# How the values were obtained:
# [1] = target: T5, FcγRIa extracellular domain with C-terminal His tag (human, UniProt P12314 16-292); test: SPR (Biacore): antibody captured on the chip, FcγR as analyte; amount bound per amount captured, relative to GpH7-B3/GpL16-k0 without mutation = 100
# T5 construct: whole entry named; also called FcgRIa; CD64A; not shown: His tag at the C terminus
# From the text: (§1) B3 variants were expressed and purified using the method of Reference Example 1, and the binding to each FcγR (FcγRIa, FcγRIIa type H, FcγRIIa type R, FcγRIIb, and FcγRIIIa) was comprehensively evaluated using the method of Reference Example 2.
# (§2) Figures were produced based on the results of interaction analysis with each FcγR by the method below. […] The value obtained by multiplying this value by 100 was used as an indicator of the relative FcγR-binding activity of each variant.
# [2] = target: T1, FcγRIIb extracellular domain with …; test: as above
# From the text: as §1, §2
# [3] = target: T6, FcγRIIIa extracellular domain with C-terminal His tag (allotype not given) (human, UniProt P08637 17-208); test: SPR (Biacore): antibody captured on the chip, FcγR as analyte; amount bound per amount captured, relative to GpH7-B3/GpL16-k0 without mutation = 100; FcγR concentration not shown
# T6 construct: extracellular domain; also called CD16A; not shown: His tag at the C terminus
# From the text: as §1, §2
# [4] = target: T2, FcγRIIa type H extracellular domain …; test: SPR (Biacore): antibody captured on the chip, FcγR as analyte; amount bound per amount captured, relative to GpH7-B3/GpL16-k0 without mutation = 100
# From the text: as §1, §2
# [5] = target: T1, FcγRIIb extracellular domain with …; test: SPR, FcγR bound/antibody captured
# From the text: (§3) IL6R-L (SEQ ID NO: 22) was utilized as a common antibody L chain for all of the antibodies. These variants were expressed, purified, and expressed by the method of Reference Example 1. […] Interactions of each PD variant with FcγRIIa type R and FcγRIIb were comprehensively evaluated by the method of Reference Example 2.
# (§4) With regard to the results of analyzing the interaction with the respective FcγRs, a figure was produced according to the following method.
# [6] = target: T3, FcγRIIa type R extracellular domain …; test: SPR, FcγR bound/antibody captured
# From the text: as §3, §4
# [7] = target: T7, FcγRIa extracellular domain, C-terminal His tag (human, UniProt P12314 16-292); test: SPR (Biacore), antibody captured, FcγR as analyte
# T7 construct: the whole entry is named; also called FcgRIa; CD64A; not shown: His tag at the C terminus
# From the text: (§5) Furthermore, KD(IIaR)/KD(IIb) and KD(IIaH)/KD(IIb) in the table respectively represent the value obtained by dividing the KD value of each variant for FcγRIIaR by the KD value of each variant for FcγRIIb, and the value obtained by dividing the KD value of each variant for FcγRIIaH by the KD value of each variant for FcγRIIb. KD(IIb) of the parent polypeptide/KD(IIb) of the altered polypeptide refers to the value obtained by dividing the KD value of the parent polypeptide for FcγRIIb by the KD value of each variant for FcγRIIb.
# (§6) Kinetic analyses for calculating the KD values of each altered antibody for FcγR were performed according to the following method. First, antibodies of interest were captured onto the above-mentioned sensor chips, and an Fcγ receptor diluted with the running buffer was allowed to interact. The Biacore Evaluation Software was used to globally fit the measured results to the obtained sensorgram using the 1:1 Langmuir binding model, and the association rate constant ka (L/mol/s) and the dissociation rate constant kd (1/s) were calculated; and from those values the dissociation constants KD (mol/L) were calculated.
# [8] = target: T4, FcγRIIa type R extracellular domain, …; test: SPR (Biacore), antibody captured, FcγR as analyte
# From the text: as §5, §6
# [9] = target: T1, FcγRIIb extracellular domain with …; test: SPR (Biacore), antibody captured, FcγR analyte
# From the text: as §5, with “respectively show” for “respectively represent”, “to a” for “to the”
# as §6
# [10] = target: T8, FcγRIIIa type V extracellular domain with C-terminal His tag (human, UniProt P08637 17-208); test: SPR (Biacore), antibody captured, FcγR analyte
# T8 construct: extracellular domain; also called FcγRIIIaV; FcgRIIIaV; not shown: His tag at the C terminus
# From the text: as §5, with “respectively show” for “respectively represent”, “to a” for “to the”
# as §6
# [11] = target: T3, FcγRIIa type R extracellular domain …; test: SPR (Biacore), antibody captured, FcγR analyte
# From the text: as §5, with “respectively show” for “respectively represent”, “to a” for “to the”
# as §6
# [12] = target: T2, FcγRIIa type H extracellular domain …; test: SPR (Biacore), antibody captured, FcγR analyte
# From the text: as §5, with “respectively show” for “respectively represent”, “to a” for “to the”
# as §6
# T7 sequence (P12314 16-292): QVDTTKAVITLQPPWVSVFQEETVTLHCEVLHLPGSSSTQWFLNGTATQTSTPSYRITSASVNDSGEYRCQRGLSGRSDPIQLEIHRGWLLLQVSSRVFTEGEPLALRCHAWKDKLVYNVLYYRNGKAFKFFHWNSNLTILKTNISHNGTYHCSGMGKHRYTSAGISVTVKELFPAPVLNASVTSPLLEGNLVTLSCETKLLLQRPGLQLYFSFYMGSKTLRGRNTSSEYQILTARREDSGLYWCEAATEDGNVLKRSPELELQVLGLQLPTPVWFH
# T8 sequence (P08637 17-208 F176V): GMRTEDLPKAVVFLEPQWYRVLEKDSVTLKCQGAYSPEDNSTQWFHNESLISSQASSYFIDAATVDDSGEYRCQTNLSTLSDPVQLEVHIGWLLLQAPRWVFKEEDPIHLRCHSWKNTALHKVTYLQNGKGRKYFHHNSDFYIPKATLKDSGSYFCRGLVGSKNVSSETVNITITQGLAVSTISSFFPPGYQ
# T5 sequence (P12314 16-292): as the sequence (P12314 16-292) above
# T6 sequence (P08637 17-208): as the sequence (P08637 17-208 F176V) above, with V160F counted along it
Binder,Kd [7] [µM],Kd [8] [µM],Kd [9] [µM],Kd [10] [µM],Kd [11] [µM],also measured
B1,,,,,,binding result [1]: binds; binding result [2]: binds; binding result [3]: no binding
B2,,,,,,binding result [1]: binds; binding result [4]: binds; binding result [2]: binds
B3,,,,,,relative FcγRIIb-binding activity [5]: 100 % of IL6R-F652/IL6R-L; relative FcγRIIaR-binding activity [6]: 100 % of IL6R-F652/IL6R-L
B4,0.004,11,,,,
B5,0.003,6.1,,,,
B6,,,2,43,21,
B7,,,2,37,16,
B8,,,,37,22,Kd [12]: 20 µM
B9,,,3,37,32,
B10,0.007,9.9,,,,
